Tests used:
[1] = target: RMM BMC-H fused to GFP10 or GFP11 through the long linkers Lk30/27 (RMM-10/RMM-11, reference pair); test: split reporter (BiFC, NanoBiT); tripartite GFP in E. coli BL21(DE3) cells; single vector, POI-10 and POI-11 on a bicistronic mRNA under T7p, GFP1-9 independent; IPTG 10 uM from the start, 37°C; Fmax relative to the RMM reference
[2] = target: SUMO-RMM fused to GFP10 or GFP11 through the long linkers Lk30/27 (SUMO-RMM-GFP10, SUMO-RMM-GFP11); test: as above
[3] = target: RMM BMC-H fused to GFP10 or GFP11 through the long linkers Lk30/27 (RMM-10/RMM-11, reference pair); test: split reporter (BiFC, NanoBiT); tripartite GFP in E. coli BL21(DE3) cells; single vector, all three partners on a single tricistronic mRNA; IPTG 10 uM from the start, 37°C
[4] = target: K26D RMM single mutant fused to GFP10 or GFP11 (sm-RMM-10/11); test: tripartite GFP (tGFP) reconstitution, in-cell fluorescence Fmax; conditions: data collected over 16 h, induction from the culture start, read off a plot
[5] = target: RMM BMC-H with GFP10 or GFP11 at the N-terminus (N-ter tagged RMM-10/11); test: split reporter (BiFC, NanoBiT); tripartite GFP in E. coli BL21(DE3) cells; single vector, POI-10 and POI-11 on a bicistronic mRNA under T7p, GFP1-9 independent; IPTG 10 uM from the start, 37°C; Fmax relative to the RMM reference
His6-tagged RMM = test: SEC; size-exclusion HPLC of TALON-purified samples
[6] = target: K26D/N29D/A53D RMM triple mutant fused to GFP10 or GFP11 (tm-RMM-10/11); test: tripartite GFP (tGFP) reconstitution, in-cell fluorescence Fmax; conditions: data collected over 16 h, induction from the culture start, read off a plot
SUMO-RMM-His6 = test: SEC; size-exclusion HPLC of TALON-purified samples
[7] = target: N29D/A53D RMM double mutant fused to GFP10 or GFP11 (dm-RMM-10/11); test: tripartite GFP (tGFP) reconstitution, in-cell fluorescence Fmax; conditions: data collected over 16 h, induction from the culture start, read off a plot
[8] = bicistron organization mode, parent: est. 103
[9] = independent-transcript organization mode, Lk30/27 linkers, parent: est. 100
[10] = tricistron organization mode, parent: est. 97

RMM BMC-H fused to GFP10 or GFP11 through the long linkers Lk30/27 (RMM-10/RMM-11, reference pair) (natural protein)
ratio of RMM versus BWI signals [1]: 15 fold | Fmax as percent of the RMM pair reference [2]: 115% | ratio of RMM versus BWI signals [3]: 2 fold

RMM BMC-H fused to GFP10 or GFP11 through the long linkers Lk30/27 (RMM-10/RMM-11, reference pair) K26D
percent of parent [4, 8]: 107% | percent of parent [4, 9]: 119%

RMM BMC-H with GFP10 or GFP11 at the N-terminus (N-ter tagged RMM-10/11) (natural protein)
fold drop of fluorescence against C-ter tagged RMM [5]: 3 fold

His6-tagged RMM (natural protein)
stoichiometry N (His6-tagged RMM): 6

RMM BMC-H fused to GFP10 or GFP11 through the long linkers Lk30/27 (RMM-10/RMM-11, reference pair) K26D; N29D; A53D
percent of parent [6, 8]: 39% | percent of parent [6, 9]: 41% | percent of parent [6, 10]: 40%

SUMO-RMM-His6
stoichiometry N (SUMO-RMM-His6): 12

RMM BMC-H fused to GFP10 or GFP11 through the long linkers Lk30/27 (RMM-10/RMM-11, reference pair) N29D; A53D
percent of parent [7, 8]: 102% | percent of parent [7, 9]: 124% | percent of parent [7, 10]: 108%

SUMO-RMM fused to GFP10 or GFP11 through the long linkers Lk30/27 (SUMO-RMM-GFP10, SUMO-RMM-GFP11)
Fmax as percent of the RMM pair reference [1]: 50 to 65% | Fmax as percent of the RMM pair reference [2]: 50 to 65%

From article PMC10681173
